Experimental data published in US20120172293A1 (Takeda / Millennium, published 2012).
Starred links: 1 amine or outer side, 2 acyl side, 3 side chain; linkers in the order of their positions; H or OH if unused. Non-standard residues stand in square brackets, D forms with d. No end group written: not given here. *: point of attachment. X8 = (2-Hydroxy-1-(hydroxymethyl)ethyl)carbamoyl, O=C(NC(CO)CO)*; (2-carboxyethyl)carbamoyl = O=C(O)CCNC(=O)*; 2‑hydroxyethylcarbamoyl = O=C(NCCO)*; tBuAla = CC(C)(C)C[C@H](N)C(=O)O; 4Pal = N[C@@H](Cc1ccncc1)C(=O)O; Cha = N[C@@H](CC1CCCCC1)C(=O)O; Suc = O=C(CCC(=O)[*:2])[*:1]; 4Amb = NCc1ccc(C(=O)O)cc1; Iva = CC[C@](C)(N)C(=O)O; Aib = CC(C)(N)C(=O)O; Carbamoyl = NC(=O)*

T1: human Y2 receptor (human, UniProt P49146 1-381)
T1 sequence (looked up): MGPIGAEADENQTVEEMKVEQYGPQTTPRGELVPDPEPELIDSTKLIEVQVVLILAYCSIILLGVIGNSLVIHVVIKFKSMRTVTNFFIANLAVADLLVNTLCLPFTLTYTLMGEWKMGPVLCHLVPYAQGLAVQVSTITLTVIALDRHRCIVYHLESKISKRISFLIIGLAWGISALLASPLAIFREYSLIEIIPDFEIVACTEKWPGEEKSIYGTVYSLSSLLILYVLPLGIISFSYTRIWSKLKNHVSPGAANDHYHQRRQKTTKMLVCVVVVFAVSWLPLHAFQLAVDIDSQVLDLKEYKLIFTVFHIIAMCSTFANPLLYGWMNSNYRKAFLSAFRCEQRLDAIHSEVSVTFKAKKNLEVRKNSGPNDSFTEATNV

B1: (2-Carboxyethyl)carbamoyl-[D-Pro24, Iva25, Pya(4)26, Cha27,36, Aib28,31, Lys30]-PYY(23-36) (peptide)
peptide: {(2-carboxyethyl)carbamoyl}-S[dP][Iva][4Pal][Cha][Aib]NK[Aib]TRQR[Cha]-NH2
SMILES: CC[C@](C)(NC(=O)[C@H]1CCCN1C(=O)[C@H](CO)NC(=O)NCCC(=O)O)C(=O)N[C@@H](Cc1ccncc1)C(=O)N[C@@H](CC1CCCCC1)C(=O)NC(C)(C)C(=O)N[C@@H](CC(N)=O)C(=O)N[C@@H](CCCCN)C(=O)NC(C)(C)C(=O)N[C@H](C(=O)N[C@@H](CCCNC(=N)N)C(=O)N[C@@H](CCC(N)=O)C(=O)N[C@@H](CCCNC(=N)N)C(=O)N[C@@H](CC1CCCCC1)C(N)=O)[C@@H](C)O
B2: [2-Hydroxy-1-(hydroxymethyl)ethyl]carbamoyl-[D-Pro24, Iva25, Pya(4)26, Cha27,36, Aib28,31, Lys30]-PYY(23-36) (peptide)
peptide: X8-S[dP][Iva][4Pal][Cha][Aib]NK[Aib]TRQR[Cha]-NH2
SMILES: CC[C@](C)(NC(=O)[C@H]1CCCN1C(=O)[C@H](CO)NC(=O)NC(CO)CO)C(=O)N[C@@H](Cc1ccncc1)C(=O)N[C@@H](CC1CCCCC1)C(=O)NC(C)(C)C(=O)N[C@@H](CC(N)=O)C(=O)N[C@@H](CCCCN)C(=O)NC(C)(C)C(=O)N[C@H](C(=O)N[C@@H](CCCNC(=N)N)C(=O)N[C@@H](CCC(N)=O)C(=O)N[C@@H](CCCNC(=N)N)C(=O)N[C@@H](CC1CCCCC1)C(N)=O)[C@@H](C)O
B3: Carbamoyl-[D-Pro24, Cha27,28,36, Aib31]-PYY(23-36) (peptide)
peptide: Carbamoyl-S[dP]RH[Cha][Cha]NL[Aib]TRQR[Cha]-NH2
SMILES: CC(C)C[C@H](NC(=O)[C@H](CC(N)=O)NC(=O)[C@H](CC1CCCCC1)NC(=O)[C@H](CC1CCCCC1)NC(=O)[C@H](Cc1c[nH]cn1)NC(=O)[C@H](CCCNC(=N)N)NC(=O)[C@H]1CCCN1C(=O)[C@H](CO)NC(N)=O)C(=O)NC(C)(C)C(=O)N[C@H](C(=O)N[C@@H](CCCNC(=N)N)C(=O)N[C@@H](CCC(N)=O)C(=O)N[C@@H](CCCNC(=N)N)C(=O)N[C@@H](CC1CCCCC1)C(N)=O)[C@@H](C)O
notes: also called compound No. 130; Ureido-[D-Pro24,Cha27,28,36,Aib31]-PYY(23-36)
B4: 2-Hydroxyethylcarbamoyl-[D-Pro24, Cha27,36, Leu(Me)28, Lys30, Aib31]-PYY(23-36) (peptide)
peptide: {2‑hydroxyethylcarbamoyl}-S[dP]RH[Cha][tBuAla]NK[Aib]TRQR[Cha]-NH2
SMILES: C[C@@H](O)[C@H](NC(=O)C(C)(C)NC(=O)[C@H](CCCCN)NC(=O)[C@H](CC(N)=O)NC(=O)[C@H](CC(C)(C)C)NC(=O)[C@H](CC1CCCCC1)NC(=O)[C@H](Cc1c[nH]cn1)NC(=O)[C@H](CCCNC(=N)N)NC(=O)[C@H]1CCCN1C(=O)[C@H](CO)NC(=O)NCCO)C(=O)N[C@@H](CCCNC(=N)N)C(=O)N[C@@H](CCC(N)=O)C(=O)N[C@@H](CCCNC(=N)N)C(=O)N[C@@H](CC1CCCCC1)C(N)=O
notes: also called compound No. 188
B5: 3-Carboxypropionyl-[D-Pro24, Cha27,28,36, Lys30, Aib31]-PYY(23-36) (peptide)
peptide: Suc-S[dP]RH[Cha][Cha]NK[Aib]TRQR[Cha]-NH2
SMILES: C[C@@H](O)[C@H](NC(=O)C(C)(C)NC(=O)[C@H](CCCCN)NC(=O)[C@H](CC(N)=O)NC(=O)[C@H](CC1CCCCC1)NC(=O)[C@H](CC1CCCCC1)NC(=O)[C@H](Cc1c[nH]cn1)NC(=O)[C@H](CCCNC(=N)N)NC(=O)[C@H]1CCCN1C(=O)[C@H](CO)NC(=O)CCC(=O)O)C(=O)N[C@@H](CCCNC(=N)N)C(=O)N[C@@H](CCC(N)=O)C(=O)N[C@@H](CCCNC(=N)N)C(=O)N[C@@H](CC1CCCCC1)C(N)=O
notes: also called compound No. 167
B6: 2-Hydroxyethylcarbamoyl-[Glu23, D-Pro24, Cha27,28,36, Lys30, Aib31]-PYY(23-36) (peptide)
peptide: {2‑hydroxyethylcarbamoyl}-E[dP]RH[Cha][Cha]NK[Aib]TRQR[Cha]-NH2
SMILES: C[C@@H](O)[C@H](NC(=O)C(C)(C)NC(=O)[C@H](CCCCN)NC(=O)[C@H](CC(N)=O)NC(=O)[C@H](CC1CCCCC1)NC(=O)[C@H](CC1CCCCC1)NC(=O)[C@H](Cc1c[nH]cn1)NC(=O)[C@H](CCCNC(=N)N)NC(=O)[C@H]1CCCN1C(=O)[C@H](CCC(=O)O)NC(=O)NCCO)C(=O)N[C@@H](CCCNC(=N)N)C(=O)N[C@@H](CCC(N)=O)C(=O)N[C@@H](CCCNC(=N)N)C(=O)N[C@@H](CC1CCCCC1)C(N)=O
notes: also called compound No. 192
B7: 4-Aminomethylbenzoyl-[D-Arg25, Ala26, Ile28,31]-PYY(25-36) (peptide)
peptide: [4Amb][dR]AYINLITRQRY-NH2
modifications: N-terminus assumed
SMILES: CC[C@H](C)[C@H](NC(=O)[C@H](Cc1ccc(O)cc1)NC(=O)[C@H](C)NC(=O)[C@@H](CCCNC(=N)N)NC(=O)c1ccc(CN)cc1)C(=O)N[C@@H](CC(N)=O)C(=O)N[C@@H](CC(C)C)C(=O)N[C@H](C(=O)N[C@H](C(=O)N[C@@H](CCCNC(=N)N)C(=O)N[C@@H](CCC(N)=O)C(=O)N[C@@H](CCCNC(=N)N)C(=O)N[C@@H](Cc1ccc(O)cc1)C(N)=O)[C@@H](C)O)[C@@H](C)CC
notes: also called compound No. 9

These binders were tested against human Y2 receptor (human) (UniProt P49146) (assay: cell-based or functional assay).

GBA EC50 Ratio ([35S]GTPγS binding) (EC50 compound/EC50 PYY(3-36))	Binder
2.4	B1
2	B2

What follows are binders tested against T1, human Y2 receptor (assay: cell-based or functional assay).

GBA EC50 Ratio (vs PYY(3-36)), [35S]GTPγS	Binder
1 ratio	B3
0.71 ratio	B4
1.1 ratio	B5
1.2 ratio	B6
23 ratio	B7

The binders below were run against human Y2 receptor (human) (UniProt P49146) (assay: RBA: displacement of [125I]-PYY from hY2R/CHO membranes).

IC50 Ratio (IC50 compound/IC50 PYY(3-36))	Binder
3.2	B1
1.76	B2

Each binder was assayed against T1, human Y2 receptor (assay: RBA: [125I]-PYY displacement, hY2R/CHO membranes).
Method: After incubation at room temperature for 60 minutes, the mixture was filtered through the cell harvester FilterMate (PerkinElmer) using UniFilter-96 GF/C treated with polyethylenimine (PEI) solution (20 mM Tris, 0.3% PEI, pH 7.4), and the filter was washed 3 times with a filtering buffer (50 mM Tris, 5 mM MgCl₂, 150 mM NaCl, 0.03% NaN₃, 0.05% CHAPS, pH 7.4). Thereafter, UniFilter-96 GF/C was dried in a mechanical drier for 1 hour, 15 μl of the liquid scintillator MicroScint O (PerkinElmer) was added to each well, and a measurement was taken using TopCount (PerkinElmer). The data obtained were analyzed using Prism to calculate the IC₅₀ value.

IC50 Ratio (vs PYY(3-36))	Binder
1.8 ratio	B3
0.6 ratio	B4
0.64 ratio	B5
1.3 ratio	B6
92 ratio	B7
